Data as given in US20200397816A1, “METHODS TO TREAT INFLAMMATORY AND SMOOTH MUSCLE CELL PROLIFERATION DISORDERS” (THE TRUSTEES OF INDIANA UNIVERSITY, priority 2019, published 2020).
Entries after “also recorded” stand apart in the source; their conditions may differ.

Tests used:
pSphK1 = pSphK1 immunofluorescence in THP-1 macrophages; assay type: cell-based, human; details: THP1 macrophages; 1 hour EMAP II
Method: Few passages after thawing of THP-1 cell line, cells were seeded in Nunc Lab-Tek™ II 4-well imaging plates and treated with 100 nM Phorbol myristate acetate (InvivoGen, CA) for 3 days allowing THP-1 monocytes to differentiate into macrophages.
Primary hPASMCs cells or human THP-1 macrophages were seeded in Nunc Lab-Tek™ II 4-well imaging plates (Thermo Fisher Scientific) chamber well slides and cultured in growth medium. After the serum starvation cells were stimulated with EMAP II. Treated cells were rinsed with PBS and fixed with 4% paraformaldehyde at room temperature for 15 min and permeabilized with 0.1% Triton X-100 at room temperature for 10 min After washing with PBS three times, the cells were incubated with EGR1, 1amin, or pSphK1 antibody at 40C overnight. The cells were then rinsed with PBS three times and subsequently incubated with respective secondary antibody conjugated with Alex Fluor 647 and 488 or Phalloidin 488 at room temperature for 1 h. The cells were rinsed with PBS three times and coverslips were mounted with SlowFade Gold Antifade Mountant with DAPI (Thermo Fischer Scientific) and the cells were examined under Olympus microscope with 40× for EGR1 expression and with 60× for pSphK1 water immersion. […]

S1P [1] = experiment: S1P, sphingosine and ceramides by HPLC/MS/MS in RAW 264.7 macrophages; assay type: cell-based, mouse; details: EMAP II 0-24 hours
Method: (§1) RAW 264.7 (ATCC) mouse macrophages and Human Embryonic Kidney (HEK) 293T cells were cultured in DMEM media with 10% fetal bovine serum […] and glutamine HEPES buffer and beta-mercaptoethanol were added to the growth medium used for RAW 264.7 macrophages. Primary human pulmonary artery smooth muscle cells (hPASMC) purchased from Lonza (Walkersville, Md.) were cultured in complete growth medium containing smooth muscle growth media-2 (SmGM-2) with 10% FBS and growth factors provided as a kit by the supplier (Lonza, (Walkersville, Md.). THP-1 human monocyte cells were cultured in RPMI 1640 with 10% FBS and glutamine Cells were cultured in a humidified atmosphere with 5% CO2 at 370 C. For all studies passages 5-14 were used for RAW 264.7 and passages 5-10 were used for hPASMCs. For treatment studies, subconfluent cells plated in multi-well plates were serum starved and if required, pretreated for with inhibitors before stimulating with 2 μg/mL recombinant EMAP II.
Collected cells were rinsed with PBS, pelleted and frozen at minus 80° Celsius. […] Sphingolipids are normalized to inorganic phosphate levels determined from the Bligh & Dyer lipid extraction method. […]
(§2) Collected cells were rinsed with PBS, pelleted. […] Sphingolipids were normalized to inorganic phosphate levels in PASMC which was determined from the Bligh & Dyer lipid extraction method. […]

S1P [2] = experiment: S1P, sphingosine and ceramides by HPLC/MS/MS in hPASMC; assay type: cell-based, human
Method: as §1
Collected cells were rinsed with PBS, pelleted and frozen at minus 80° Celsius. Sphingolipids extraction and analysis is carried out at the Medical University of South Carolina (MUSC) core facility using eight-point calibration curves generated for each target analyte by High Performance Liquid Chromatography-Tandem Mass Spectrometry (HPLC/MS/MS) system operating in positive multiple reaction-monitoring (MRM) mode engaging a gradient elution. Sphingolipids are normalized to inorganic phosphate levels determined from the Bligh & Dyer lipid extraction method. Biological samples were from different passage numbers and on different days.
RAW 264.7 (ATCC) mouse macrophages and HEK-293T (ATCC) cells were cultured in DMEM media with 10% (v/v) fetal bovine serum (FBS) and 2 mM glutamine HEPES buffer and beta-mercaptoethanol were added to the growth medium used for RAW 264.7 macrophages. […]
as §2

Il6 = Il6 transcripts qRT-PCR in hPASMC; assay type: cell-based, human; details: SMCs, EMAP II time course
Method: (§3) RAW 264.7 (ATCC) mouse macrophages and Human Embryonic Kidney (HEK) 293T cells were cultured in DMEM media with 10% fetal bovine serum […] and glutamine HEPES buffer and beta-mercaptoethanol were added to the growth medium used for RAW 264.7 macrophages. […]
Total RNA was extracted with TriZol using standard RNA extraction protocol and reverse transcribed with SuperScript III Reverse Transcriptase (Thermo Fischer Scientific). SphK1, Tnf, Il6, EGR1, Gapdh, Hprt1 transcripts were quantified using PrimePCR SYBR Green assays from BioRad. […]
Total RNA was extracted with TriZol using standard RNA extraction protocol and reverse transcribed with SuperScript III Reverse Transcriptase (Thermo Fisher Scientific). SPHK1, Tnf, Il6, EGR1, Gapdh, Hprt1 transcripts were quantified using PrimePCR SYBR Green assays from BioRad.

Cyclin D1 = Cyclin D1 western blot in hPASMC; assay type: cell-based, human; details: SMCs; 48 hours of EMAP II stimulation
Method: as §3
After appropriate treatments, protein lysates were prepared by using RIPA buffer supplemented with phosphatase and protease inhibitors (Thermo Fischer Scientific). […] Western blots were performed according to standard methods and quantified using densitometry using Image Studio Lite software from LI-COR Biosciences. […]
After appropriate treatments, protein lysates were prepared by using RIPA buffer supplemented with phosphatase and protease inhibitors (Thermo Fisher Scientific). […] Western blots were performed according to standard methods and quantified using densitometry using Image Studio Lite software from LI-COR Biosciences.

B1: EMAP II: 6x-His tagged recombinant EMAP II, cleaved C-terminal peptide of AIMP1 (SEQ ID NO: 2), pro-inflammatory cytokine (protein)
chain: IAGSADSKPIDVSRLDLRIGCIITARKHPDADSLYVEEVDVGEIAPRTVVSGLVNHVPLEQMQNRMVILLCNLKPAKMRGVLSQAMVMCASSPEKIEILAPPNGSVPGDRITFDAFPGEPDKELNPKKKIWEQIQPDLHTNDECVATYKGVPFEVKGKGVCRAQTMSNSGIK
pSphK1
  pSphK1 localization to the plasma membrane: stimulated translocation; also recorded: elevated levels of pSPHK1
S1P [1]
  cellular sphingosine and ceramide levels: bi-modal depreciation; also recorded: decreasing levels over time
S1P [1]; normalized against inorganic phosphates
  cellular S1P levels: continuous elevation
S1P [2]; SMCs growth media, 1 hour of EMAP II
  extracellular S1P compared to control: elevation; also recorded: elevated
S1P [2]; SMCs, EMAP II 0-24 hours
  cellular sphingosine and ceramide levels: depreciation throughout the time; also recorded: decreasing levels over time
S1P [2]; SMCs, EMAP II 0-24 hours, normalized against inorganic phosphates
  cellular S1P levels (HPLC/MS/MS): bi-modal elevation
Il6
  Il6 transcription: increased transcription
Cyclin D1
  cyclin D1 expression: modulates cyclin D1; also recorded: marked increase
